Assay results reported in the supplement of paper PMC10567573.

B1: PLAGL1 (parent)
chain: CKDFLCQFCAQRFGRKDHLTRHTK

Variants of: B1
Test: protein stability index of a GFP-peptide fusion (GPS, HEK-293T) (PSI 1-6); higher = more stable
Conditions: c terminus: a fixed tail appended
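Note: lentivirally expressed fusions sorted by FACS into six bins by GFP to DsRed ratio, PSI derived from sequencing read proportions per bin multiplied by bin number.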

Variant	protein stability index
CKDFFCQFCAQRFGRKDHLTRHTK [L5F]	2.56
CKDFNCQFCAQRFGRKDHLTRHTK [L5N]	2.23
CKDFHCQFCAQRFGRKDHLTRHTK [L5H]	1.89
CKDFYCQFCAQRFGRKDHLTRHTK [L5Y]	1.82
CKDFCCQFCAQRFGRKDHLTRHTK [L5C]	1.41
CKDFQCQFCAQRFGRKDHLTRHTK [L5Q]	2.01
CKDFDCQFCAQRFGRKDHLTRHTK [L5D]	2.18
CKDFTCQFCAQRFGRKDHLTRHTK [L5T]	1.81
CKDFKCQFCAQRFGRKDHLTRHTK [L5K]	2.08
CKDFGCQFCAQRFGRKDHLTRHTK [L5G]	2.23
CKDFECQFCAQRFGRKDHLTRHTK [L5E]	2.07
CKDFRCQFCAQRFGRKDHLTRHTK [L5R]	1.43
CKDFICQFCAQRFGRKDHLTRHTK [L5I]	1.69
CKDFVCQFCAQRFGRKDHLTRHTK [L5V]	1.36
CKDFWCQFCAQRFGRKDHLTRHTK [L5W]	1.93
CKDFACQFCAQRFGRKDHLTRHTK [L5A]	2.02
CKDFPCQFCAQRFGRKDHLTRHTK [L5P]	2.87
CKDFSCQFCAQRFGRKDHLTRHTK [L5S]	2.41
CKDFMCQFCAQRFGRKDHLTRHTK [L5M]	1.9
PKDFLCQFCAQRFGRKDHLTRHTK [C1P]	2.2
DKDFLCQFCAQRFGRKDHLTRHTK [C1D]	2.31
AKDFLCQFCAQRFGRKDHLTRHTK [C1A]	3.04
MKDFLCQFCAQRFGRKDHLTRHTK [C1M]	1.53
KKDFLCQFCAQRFGRKDHLTRHTK [C1K]	2.11

Variant	protein stability index
GKDFLCQFCAQRFGRKDHLTRHTK [C1G]	1.93
IKDFLCQFCAQRFGRKDHLTRHTK [C1I]	2.46
SKDFLCQFCAQRFGRKDHLTRHTK [C1S]	2.7
TKDFLCQFCAQRFGRKDHLTRHTK [C1T]	1.76
NKDFLCQFCAQRFGRKDHLTRHTK [C1N]	1.72
LKDFLCQFCAQRFGRKDHLTRHTK [C1L]	2.25
RKDFLCQFCAQRFGRKDHLTRHTK [C1R]	2.04
WKDFLCQFCAQRFGRKDHLTRHTK [C1W]	1.84
VKDFLCQFCAQRFGRKDHLTRHTK [C1V]	1.67
HKDFLCQFCAQRFGRKDHLTRHTK [C1H]	2.02
QKDFLCQFCAQRFGRKDHLTRHTK [C1Q]	2.11
YKDFLCQFCAQRFGRKDHLTRHTK [C1Y]	2.44
FKDFLCQFCAQRFGRKDHLTRHTK [C1F]	1.64
CKDFLCQFHAQRFGRKDHLTRHTK [C9H]	2.11
CKDFLCQFRAQRFGRKDHLTRHTK [C9R]	1.45
CKDFLCQFAAQRFGRKDHLTRHTK [C9A]	2.05
CKDFLCQFLAQRFGRKDHLTRHTK [C9L]	2.22
CKDFLCQFWAQRFGRKDHLTRHTK [C9W]	2
CKDFLCQFEAQRFGRKDHLTRHTK [C9E]	2
CKDFLCQFFAQRFGRKDHLTRHTK [C9F]	1.11
CKDFLCQFIAQRFGRKDHLTRHTK [C9I]	2.56
CKDFLCQFDAQRFGRKDHLTRHTK [C9D]	2.11
CKDFLCQFQAQRFGRKDHLTRHTK [C9Q]	2.72
CKDFLCQFNAQRFGRKDHLTRHTK [C9N]	2.58

Variant	protein stability index
CKDFLCQFTAQRFGRKDHLTRHTK [C9T]	1.93
CKDFLCQFMAQRFGRKDHLTRHTK [C9M]	1.79
CKDFLCQFYAQRFGRKDHLTRHTK [C9Y]	1.47
CKDFLCQFSAQRFGRKDHLTRHTK [C9S]	2.03
CKDFLCQFKAQRFGRKDHLTRHTK [C9K]	2.42
CKDFLCQFPAQRFGRKDHLTRHTK [C9P]	3.17
CKDFLCQFGAQRFGRKDHLTRHTK [C9G]	2.14
CKDFLCQFVAQRFGRKDHLTRHTK [C9V]	2.46
CKDFLEQFCAQRFGRKDHLTRHTK [C6E]	2.63
CKDFLPQFCAQRFGRKDHLTRHTK [C6P]	2.38
CKDFLYQFCAQRFGRKDHLTRHTK [C6Y]	2.1
CKDFLIQFCAQRFGRKDHLTRHTK [C6I]	1.62
CKDFLKQFCAQRFGRKDHLTRHTK [C6K]	1.4
CKDFLDQFCAQRFGRKDHLTRHTK [C6D]	2.17
CKDFLNQFCAQRFGRKDHLTRHTK [C6N]	1.76
CKDFLHQFCAQRFGRKDHLTRHTK [C6H]	2.25
CKDFLFQFCAQRFGRKDHLTRHTK [C6F]	1.78
CKDFLVQFCAQRFGRKDHLTRHTK [C6V]	1.89
CKDFLWQFCAQRFGRKDHLTRHTK [C6W]	1.78
CKDFLLQFCAQRFGRKDHLTRHTK [C6L]	1.99
CKDFLGQFCAQRFGRKDHLTRHTK [C6G]	1.84
CKDFLTQFCAQRFGRKDHLTRHTK [C6T]	2.04
CKDFLAQFCAQRFGRKDHLTRHTK [C6A]	2.18
CKDFLMQFCAQRFGRKDHLTRHTK [C6M]	1.48

Variant	protein stability index
CKDFLQQFCAQRFGRKDHLTRHTK [C6Q]	2.34
CKDFLRQFCAQRFGRKDHLTRHTK [C6R]	1.41
CKDFLSQFCAQRFGRKDHLTRHTK [C6S]	1.58
CPDFLCQFCAQRFGRKDHLTRHTK [K2P]	2.52
CWDFLCQFCAQRFGRKDHLTRHTK [K2W]	1.7
CYDFLCQFCAQRFGRKDHLTRHTK [K2Y]	2.05
CCDFLCQFCAQRFGRKDHLTRHTK [K2C]	2.44
CVDFLCQFCAQRFGRKDHLTRHTK [K2V]	1.53
CTDFLCQFCAQRFGRKDHLTRHTK [K2T]	2.09
CEDFLCQFCAQRFGRKDHLTRHTK [K2E]	2.13
CGDFLCQFCAQRFGRKDHLTRHTK [K2G]	2.43
CADFLCQFCAQRFGRKDHLTRHTK [K2A]	1.7
CLDFLCQFCAQRFGRKDHLTRHTK [K2L]	1.85
CHDFLCQFCAQRFGRKDHLTRHTK [K2H]	2.46
CFDFLCQFCAQRFGRKDHLTRHTK [K2F]	2.35
CMDFLCQFCAQRFGRKDHLTRHTK [K2M]	1.46
CSDFLCQFCAQRFGRKDHLTRHTK [K2S]	1.74
CRDFLCQFCAQRFGRKDHLTRHTK [K2R]	2.74
CDDFLCQFCAQRFGRKDHLTRHTK [K2D]	2.02
CQDFLCQFCAQRFGRKDHLTRHTK [K2Q]	2.08
CNDFLCQFCAQRFGRKDHLTRHTK [K2N]	2.02
CIDFLCQFCAQRFGRKDHLTRHTK [K2I]	1.78
